According to IntAct's records for PubMed 20007317:

B1: SAGA complex subunit SGF11 (Saccharomyces cerevisiae), Q03067 (parent)
chain: MTEETITIDSISNGILNNLLTTLIQDIVARETTQQQLLKTRYPDLRSYYFDPNGSLDINGLQKQQESSQYIHCENCGRDVSANRLAAHLQRCLSRGARR
partner: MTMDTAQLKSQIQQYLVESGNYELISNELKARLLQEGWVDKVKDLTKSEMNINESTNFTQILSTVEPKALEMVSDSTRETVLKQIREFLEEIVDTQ

Variants of: B1
Conditions: with sus1_yeast SUS1, Q6WNK7

| Variant | effect of a mutation on the interaction |
| --- | --- |
| L19A | decreasing interaction |
| N18A | decreasing interaction |
| I15A | decreasing interaction |
